Broadly, the stoichiometry N is a count of units in the complex or per binding partner.

The data set deals with the molecule itself. The data set can be described thus: cryo-EM structure; native full-length gB with 93k Fab fragments added in molar excess, overnight at +4 °C; Amphipol 8-35, TBS pH7.4, Superose-6; single particle, C3 symmetry imposed.

B1: native, full-length VZV glycoprotein B (gB) purified from VZV-infected MeWo cells (natural protein, UniProt Q4JR05 72-931, looked up)
chain: VSPSSFYESLQVEPTQSEDITRSAHLGDGDEIREAIHKSQDAETKPTFYVCPPPTGSTIVRLEPPRTCPDYHLGKNFTEGIAVVYKENIAAYKFKATVYYKDVIVSTAWAGSSYTQITNRYADRVPIPVSEITDTIDKFGKCSSKATYVRNNHKVEAFNEDKNPQDMPLIASKYNSVGSKAWHTTNDTYMVAGTPGTYRTGTSVNCIIEEVEARSIFPYDSFGLSTGDIIYMSPFFGLRDGAYREHSNYAMDRFHQFEGYRQRDLDTRALLEPAARNFLVTPHLTVGWNWKPKRTEVCSLVKWREVEDVVRDEYAHNFRFTMKTLSTTFISETNEFNLNQIHLSQCVKEEARAIINRIYTTRYNSSHVRTGDIQTYLARGGFVVVFQPLLSNSLARLYLQELVRENTNHSPQKHPTRNTRSRRSVPVELRANRTITTTSSVEFAMLQFTYDHIQEHVNEMLARISSSWCQLQNRERALWSGLFPINPSALASTILDQRVKARILGDVISVSNCPELGSDTRIILQNSMRVSGSTTRCYSRPLISIVSLNGSGTVEGQLGTDNELIMSRDLLEPCVANHKRYFLFGHHYVYYEDYRYVREIAVHDVGMISTYVDLNLTLLKDREFMPLQVYTRDELRDTGLLDYSEIQRRNQMHSLRFYDIDKVVQYDSGTAIMQGMAQFFQGLGTAGQAVGHVVLGATGALLSTVHGFTTFLSNPFGALAVGLLVLAGLVAAFFAYRYVLKLKTSPMKALYPLTTKGLKQLPEGMDPFAEKPNATDTPIEEIGDSQNTEPSVNSGFDPDKFREAQEMIKYMTLVSAAERQESKARKKNKTSALLTSRLTGLALRNRRGYSRVRTENVTGV
notes: Varicella-zoster virus glycoprotein B, 931 amino acids, ORF31, strain pOka; cleaved by furin: both uncleaved (130 kDa) and cleaved (65 kDa) gB are present; also called native gB; full-length gB
For the protein B1, the “stoichiometry N” value was determined as 3.

For the origin of these results see paper PMC7435202 (Nature Communications, 2020).
